Blank lines part the entries; values can stand above or below the binder they belong to.
Legend:
[1] = target: CD137 antigen used to stain yeast (human) (UniProt Q07011); test: flow cytometry of yeast displaying the scFv, quadrant plot; the other quadrants read 0.39% (upper left), 34.3% (lower left), 3.83% (lower right)
[2] = target: CD137 antigen used to stain yeast (human) (UniProt Q07011); test: flow cytometry of yeast displaying the scFv, CD137 binding against scFv display; file 01-5112.2-B5.fcs; kind of statistic and antigen concentration not given; the boxed gate is set on scFv display
[3] = target: CD137 antigen used to stain yeast (human) (UniProt Q07011); test: flow cytometry of yeast displaying the scFv, CD137 binding against scFv display; file 01-display-C2.fcs; antigen concentration not given
[4] = target: CD137 antigen used to stain yeast (human) (UniProt Q07011); test: flow cytometry of yeast displaying the scFv clone after TEV protease treatment, CD137 binding against scFv display; file 01-2317-B8.fcs; antigen concentration not given
[5] = target: CD137 antigen used to stain yeast (human) (UniProt Q07011); test: flow cytometry of yeast displaying the clone after TEV protease treatment, CD137 binding against the axis printed as scFv display; file 01-2328-B11.fcs; antigen concentration not given

Chain of CD137 antigen used to stain yeast (human) (Q07011 24-186 limits assumed): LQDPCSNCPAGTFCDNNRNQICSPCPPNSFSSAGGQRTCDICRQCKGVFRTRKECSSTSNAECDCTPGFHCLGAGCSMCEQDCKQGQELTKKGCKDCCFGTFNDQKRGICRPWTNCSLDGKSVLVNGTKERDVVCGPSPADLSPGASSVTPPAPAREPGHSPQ

percent of cells in the upper right quadrant (scFv display positive and CD137 binding positive) [1]: 61.4%
Y (signal on the CD137 binding axis, FL2-A :: PE-A) [2]: 19200
Y (signal on the CD137 binding axis, FL2-A :: PE-A) [3]: 27800
B1: scFv of TY21242 displayed on yeast (scFv, part only; not given: scFv linker, Aga2, tag, V domains shown, not shown: another chain or arm of the molecule; large carriers; small tags and cut ends)
VL: DIQLTQSPSSLSASVGDRVTITCRASQSIGSYLAWYQQKPGKAPKLLIYDASNLETGVPSRFSGSGSGTDFTLTISSLQPEDFATYYCQQGYYLWTFGQGTKVEIK
VH: EVQLVESGGGLVQPGGSLRLSCAASGFSLSTGGVGVGWIRQAPGKGLEWLALIDWADDKYYSPSLKSRLTISRDNSKNTLYLQLNSLRAEDTAVYYCARGGSDTVIGDWFAYWGQGTLVTVSS

Y (signal on the CD137 binding axis, FL2-A :: PE-A) [4]: 10100
B2: CD137 activatable antibody clone B13428 (scFv on yeast, masking peptide cleaved by TEV protease) (scFv, part only; not given: cleavage stub, scFv linker, Aga2, V domains shown, not shown: another chain or arm of the molecule; large carriers; small tags and cut ends)
VL: B1 VL
VH: B1 VH

Y (signal on the CD137 binding axis, FL2-A :: PE-A) [5]: 7270
B3: CD137 activatable antibody clone B13439 (scFv on yeast, masking peptide cleaved by TEV protease) (scFv, part only; not given: cleavage stub, scFv linker, Aga2, tag, V domains shown, not shown: another chain or arm of the molecule; large carriers; small tags and cut ends)
VL: B1 VL
VH: B1 VH

— patent US20210207126A1
